{"source": "patent US20180155411A1", "about": "(Stanford University, published 2018)", "key": {"[1]": {"biological_target": "T1, VP4 of rotavirus strain Wa (G1P[8]) (human rotavirus, UniProt P11193 1-775)", "T1 construct": "whole, on cells", "assay": "immunostaining, RV-infected MA104 cells"}, "[2]": {"biological_target": "T1, VP4 of rotavirus strain Wa (G1P[8])", "assay": "cell-based or functional assay"}, "[3]": {"biological_target": "T2, CDC-9 triple layered particles (TLPs), G1P[8] (human rotavirus)", "assay": "ELISA, CDC-9 TLPs"}, "[4]": {"biological_target": "VP4 of rotavirus strain 69M (G8P[10]) (human rotavirus)", "assay": "cell-based or functional assay"}, "[5]": {"biological_target": "VP4 of rotavirus strain #321 (G10P[11]) (human rotavirus)", "assay": "cell-based or functional assay"}, "[6]": {"biological_target": "T3, VP4 of rotavirus strain ST3 (G4P[6]) (human rotavirus)", "T3 construct": "whole, on cells", "assay": "immunostaining, RV-infected MA104 cells"}, "[7]": {"biological_target": "T4, VP4 of rotavirus strain OSU (G5P[7]) (porcine rotavirus)", "T4 construct": "whole, on cells; also called OSU G5[7]", "assay": "immunostaining, RV-infected MA104 cells"}, "[8]": {"biological_target": "T5, VP4 of rotavirus strain NCDV (G6P[1]) (bovine rotavirus)", "T5 construct": "whole, on cells", "assay": "immunostaining, RV-infected MA104 cells"}, "[9]": {"biological_target": "T6, VP4 of rotavirus strain DS1 (G2P[4]) (human rotavirus, UniProt Q14197)", "T6 construct": "whole, on cells", "assay": "immunostaining, RV-infected MA104 cells"}, "[10]": {"biological_target": "T4, VP4 of rotavirus strain OSU (G5P[7])", "assay": "cell-based or functional assay"}, "[11]": {"biological_target": "T5, VP4 of rotavirus strain NCDV (G6P[1])", "assay": "cell-based or functional assay"}, "[12]": {"biological_target": "VP7 of rotavirus strain #321 (G10P[11]) (human rotavirus)", "assay": "cell-based or functional assay"}, "[13]": {"biological_target": "VP7 of rotavirus strain 69M (G8P[10]) (human rotavirus)", "assay": "cell-based or functional assay"}, "[14]": {"biological_target": "T7, VP7 of rotavirus strain Wa (G1P[8]) (human rotavirus, UniProt P03532 51-326)", "T7 construct": "whole, on cells", "T7 sequence (P03532 51-326 limits assumed)": "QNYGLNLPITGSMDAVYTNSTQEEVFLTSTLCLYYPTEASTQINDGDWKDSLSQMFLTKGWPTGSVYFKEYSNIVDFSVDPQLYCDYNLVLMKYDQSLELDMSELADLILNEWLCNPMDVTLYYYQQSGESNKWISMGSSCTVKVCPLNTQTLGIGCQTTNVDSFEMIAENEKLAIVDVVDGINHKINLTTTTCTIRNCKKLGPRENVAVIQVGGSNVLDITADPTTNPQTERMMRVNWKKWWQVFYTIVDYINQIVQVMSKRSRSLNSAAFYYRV", "assay": "immunostaining, RV-infected MA104 cells"}, "[15]": {"biological_target": "T7, VP7 of rotavirus strain Wa (G1P[8])", "assay": "cell-based or functional assay"}, "[16]": {"biological_target": "T2, CDC-9 triple layered particles (TLPs), …", "assay": "cell-based or functional assay"}, "[17]": {"biological_target": "T6, VP4 of rotavirus strain DS1 (G2P[4])", "assay": "cell-based or functional assay"}, "[18]": {"biological_target": "T8, VP7 of rotavirus strain OSU (G5P[7]) (porcine rotavirus)", "T8 construct": "whole, on cells; also called OSU G5[7]", "T8 sequence (P08406 51-326)": "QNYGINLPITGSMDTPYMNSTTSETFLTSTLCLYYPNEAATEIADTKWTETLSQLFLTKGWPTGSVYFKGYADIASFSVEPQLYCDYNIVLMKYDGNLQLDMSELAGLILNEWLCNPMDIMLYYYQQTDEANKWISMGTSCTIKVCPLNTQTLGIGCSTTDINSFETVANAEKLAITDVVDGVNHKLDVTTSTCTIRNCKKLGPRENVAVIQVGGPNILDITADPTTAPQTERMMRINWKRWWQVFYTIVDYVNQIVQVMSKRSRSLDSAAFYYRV", "assay": "immunostaining, RV-infected MA104 cells"}, "[19]": {"biological_target": "T9, VP7 of rotavirus strain DS1 (G2P[4]) (human rotavirus)", "T9 construct": "whole, on cells", "T9 sequence (P11850 51-326)": "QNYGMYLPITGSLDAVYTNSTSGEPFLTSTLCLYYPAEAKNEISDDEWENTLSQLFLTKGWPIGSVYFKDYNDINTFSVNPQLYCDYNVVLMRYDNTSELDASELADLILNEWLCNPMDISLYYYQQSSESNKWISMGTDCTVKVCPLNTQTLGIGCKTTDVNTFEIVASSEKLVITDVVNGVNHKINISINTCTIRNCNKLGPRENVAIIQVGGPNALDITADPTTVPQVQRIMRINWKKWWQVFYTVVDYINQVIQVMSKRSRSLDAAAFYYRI", "assay": "immunostaining, RV-infected MA104 cells"}, "[20]": {"biological_target": "T10, VP7 of rotavirus strain ST3 (G4P[6]) (human rotavirus)", "T10 construct": "whole, on cells", "T10 sequence (P10501 51-326)": "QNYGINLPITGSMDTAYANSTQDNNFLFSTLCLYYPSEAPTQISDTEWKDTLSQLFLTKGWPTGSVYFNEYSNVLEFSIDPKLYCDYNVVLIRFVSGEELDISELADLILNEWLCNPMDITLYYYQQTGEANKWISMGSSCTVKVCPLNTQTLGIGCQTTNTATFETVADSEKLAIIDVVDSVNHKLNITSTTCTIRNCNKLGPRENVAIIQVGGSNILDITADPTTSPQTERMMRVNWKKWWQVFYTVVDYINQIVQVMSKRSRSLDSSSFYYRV", "assay": "immunostaining, RV-infected MA104 cells"}, "[21]": {"biological_target": "T11, VP7 of rotavirus strain RRV (G3P[3]) (simian rotavirus, UniProt P12476 51-326)", "T11 construct": "whole, on cells", "T11 sequence (P12476 51-326)": "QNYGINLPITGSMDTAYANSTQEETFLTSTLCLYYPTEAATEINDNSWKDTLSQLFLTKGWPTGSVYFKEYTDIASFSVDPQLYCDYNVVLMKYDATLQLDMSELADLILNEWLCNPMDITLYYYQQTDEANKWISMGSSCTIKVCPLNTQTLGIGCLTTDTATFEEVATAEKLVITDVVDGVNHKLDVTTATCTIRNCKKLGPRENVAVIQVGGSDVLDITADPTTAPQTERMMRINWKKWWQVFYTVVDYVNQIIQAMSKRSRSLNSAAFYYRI", "assay": "immunostaining, RV-infected MA104 cells"}, "[22]": {"biological_target": "T8, VP7 of rotavirus strain OSU (G5P[7])", "assay": "cell-based or functional assay"}, "[23]": {"biological_target": "T9, VP7 of rotavirus strain DS1 (G2P[4])", "assay": "cell-based or functional assay"}, "[24]": {"biological_target": "T11, VP7 of rotavirus strain RRV (G3P[3])", "assay": "cell-based or functional assay"}}}
{"binder": "mAb #33 (antibody, V domains shown, also called mAb ID: 33; Mab No. 33) VH: DVQLVESGGGLVQPGGPSRLSCSASRFTFSNYAMYWVRQAPGKGLEYVSSISSDGGSTYYAESVKGRFTISRDNSKNTLYLQMRSLRAEDAAVYYCVTDVLRLPYSTGWSPGDFIYWGQGTLVTVSS VL: DIQMTQSPSILYASVGDRVTITCRASQSVSSWLAWYQQKPGKVPKLLIYQASTLENGVPSRFSGSGSGTEFILTISSLQPDDFATYYCQHYNVLWTFGQGTKVEI", "values": [{"measurement": "Endpoint immunostaining concentration", "setting": "[1]", "result": 50, "unit": "ng/mL"}, {"measurement": "minimum neutralizing concentration", "setting": "[2]", "result": 2.4, "unit": "ng/mL"}]}
{"binder": "mAb #49 (antibody, V domains shown, also called mAb ID: 49; Mab No. 49) VH: DVQLVESGGGLVQPGGSVRLSCSASRFTFSNYAMYWVRQAPGKGLEYVSSISSDGGSTYYAESVKGRFTISRDNSKNTLYLQMRSLRAEDAAVYYCVTDVLRLPYSTGWSPGDFIYWGQGTLVTVSS VL: DIQMTQSPSILYASVGDRVTITCRASQSVSSWLAWYQQKPGKVPKLLIYQASTLENGVPSRFSGSGSGTEFILTISSLQPDDFATYYCQHYNVLWTFGQGTKVEIK", "values": [{"measurement": "Minimum concentration for TLP binding", "setting": "[3]", "result": 5, "unit": "ng/mL"}, {"measurement": "in vitro neutralization", "setting": "[4]", "result": "> 625", "unit": "ng/mL"}, {"measurement": "in vitro neutralization", "setting": "[5]", "result": "> 625", "unit": "ng/mL"}, {"measurement": "Endpoint immunostaining concentration", "setting": "[6]", "result": 5, "unit": "ng/mL"}, {"measurement": "Endpoint immunostaining concentration", "setting": "[7]", "result": 5.6, "unit": "ng/mL"}, {"measurement": "Endpoint immunostaining concentration", "setting": "[8]", "result": 5.6, "unit": "ng/mL"}, {"measurement": "Endpoint immunostaining concentration", "setting": "[1]", "result": 5, "unit": "ng/mL"}, {"measurement": "Endpoint immunostaining concentration", "setting": "[9]", "result": 0.5, "unit": "ng/mL"}, {"measurement": "minimum neutralizing concentration", "setting": "[10]", "result": 156, "unit": "ng/mL"}, {"measurement": "minimum neutralizing concentration", "setting": "[11]", "result": 39.1, "unit": "ng/mL"}, {"measurement": "minimum neutralizing concentration", "setting": "[2]", "result": 39.1, "unit": "ng/mL"}]}
{"binder": "mAb #2 (antibody, V domains shown, also called mAb ID: 2; Mab No. 2) VH: EVQLVESGGGLVKPGGSLRLSCKASGLIVSDAWMSWVRQSPGKGLEWVGRIKSEINGGTIDYAAPVKGRFTILRDDSKNTLYLQINSLKTEDTAVYYCTTRLLFSPWGQGTLVTVSS VL: QPVLTQPPSSSASPGESARLTCTLPSDINVAYYNIYWYQQKPGSPPRYLLYYYSDSDQGQGSGVPSRFSGSKDASANTGILFISGLQSEDEADYYCMIWTSNASMFGGGTKLTVL", "values": [{"measurement": "Endpoint immunostaining concentration", "setting": "[1]", "result": 5, "unit": "ng/mL"}]}
{"binder": "mAb #46 (antibody, V domains shown, also called mAb ID: 46; Mab No. 46) VH: QVQLQESGPGLVKPSETLSLTCTVSGGSINSYYWSWIRQSPGKGLEWIGYVFYSGITKYNPSLQSRVTISLDMGKNQFSLKLTSVNAADAAVYYCARNFPSYTPDWFFDLWGRGTLVTVSS VL: EIVLTQSPGTLSLSPGERATLSCRASQSVSSDNLAWYQQKPGQPPRLLIYGASHRATGIPDRFSGSGSGTDFTLTISRLEPEDFAVYHCQQYGSSPLTFGGGTKVEIK", "values": [{"measurement": "Minimum concentration for TLP binding", "setting": "[3]", "result": 0.5, "unit": "ng/mL"}, {"measurement": "in vitro neutralization", "setting": "[12]", "result": "> 625", "unit": "ng/mL"}, {"measurement": "in vitro neutralization", "setting": "[13]", "result": "> 625", "unit": "ng/mL"}, {"measurement": "Endpoint immunostaining concentration", "setting": "[14]", "result": 0.5, "unit": "ng/mL"}, {"measurement": "minimum neutralizing concentration", "setting": "[15]", "result": 2.4, "unit": "ng/mL"}]}
{"binder": "mAb #27 (antibody, V domains shown, also called mAb ID: 27; Mab No. 27) VH: QVQLQESGPGLVKPLETLSLTCAVSGVSINSYYWSWIRQPPGKGLEWIGNVFYSGSTKYNPSLESRVAMTVDSSRNQVSLRLNSVTAADTAVYYCAREGVGYGYNNYGGNWFDPWGQGTLVTVSS VL: EVVLTQSPGTLSLSPGERVTLSCRASQSVTSSNLAWYQQKPGQTPRLLISGASSRATGIPDRFSGSGSGTDFTLTISRLEPEDFAVYYCQQYANSPVTFGGGTKLEIK", "values": [{"measurement": "Endpoint immunostaining concentration", "setting": "[14]", "result": 0.5, "unit": "ng/mL"}, {"measurement": "minimum neutralizing concentration", "setting": "[15]", "result": 0.3, "unit": "ng/mL"}]}
{"binder": "mAb #30 (antibody, V domains shown, also called mAb ID: 30; Mab No. 30) VH: QVQLVQSGAEVKKPGASVTVSCKASGYAFTSFYLHWVRQAPGQGLEWMGIINPSDGRTRYAQKFQGRVTMTSDTSTNTVYVELSSLRSEDTAIYYCARGAIGNYNAREALDVWGRGTTVTVSS VL: EIVMTQSPATLSVSPGESATLSCRASQSINSNLAWYQQKPGQAPRLLIFSASSRATGIPARFSGSGSGTEFTLTISSLQSDDFAVYYCQQYNIWPPEHTFGQGTRLQIK", "values": [{"measurement": "Endpoint immunostaining concentration", "setting": "[1]", "result": 5, "unit": "ng/mL"}, {"measurement": "minimum neutralizing concentration", "setting": "[2]", "result": 0.6, "unit": "ng/mL"}]}
{"binder": "mAb #47 (antibody, V domains shown, also called mAb ID: 47; Mab No. 47) VH: QVQLQESGPGLVKPSETLSLTCSVSGGSISVYYWNWIRQSPGKGLEWIASMYYTGITNYNPSLKSRVTMSVDMSKNQFSLKLSSVTAADTAVYYCARTMGIDQNNRGWPPAGYYFGMDVWGQGTTVTVSS VL: not shown", "values": [{"measurement": "Minimum concentration for TLP binding", "setting": "[3]", "result": 0.5, "unit": "ng/mL"}, {"measurement": "in vitro neutralization", "setting": "[4]", "result": "> 625", "unit": "ng/mL"}, {"measurement": "in vitro neutralization", "setting": "[5]", "result": "> 625", "unit": "ng/mL"}, {"measurement": "Endpoint immunostaining concentration", "setting": "[1]", "result": 0.5, "unit": "ng/mL"}, {"measurement": "Endpoint immunostaining concentration", "setting": "[9]", "result": 0.5, "unit": "ng/mL"}, {"measurement": "minimum neutralizing concentration", "setting": "[16]", "result": 4.9, "unit": "ng/mL"}, {"measurement": "minimum neutralizing concentration", "setting": "[17]", "result": 4.9, "unit": "ng/mL"}]}
{"binder": "mAb #57 (antibody, V domains shown, also called mAb ID: 57; Mab No. 57) VH: QVQLVESGGGVVQSGRSLRLSCAASGFTFRSYAMHWVRQAPGKGLEWVADLSLDGSHKYADSVRGRFTISSDSSKNTVYLQMNSLRTEDTAIYYCARAAGIMVAGTFLTEFYFDYWGQGTLVTVSS VL: QSVLTQPPSVSGAPGQRVTISCTGSSSNIGAGYDVHWYQQLPGTAPKLLIYGNIKRPSGVPDRFSGSKSGTSASLAITGLQTEDEADYYCQSYDSSLSAYYVFGTGTRVTVL", "values": [{"measurement": "Minimum concentration for TLP binding", "setting": "[3]", "result": 0.5, "unit": "ng/mL"}, {"measurement": "in vitro neutralization", "setting": "[12]", "result": "> 625", "unit": "ng/mL"}, {"measurement": "in vitro neutralization", "setting": "[13]", "result": "> 625", "unit": "ng/mL"}, {"measurement": "Endpoint immunostaining concentration", "setting": "[18]", "result": 50, "unit": "ng/mL"}, {"measurement": "Endpoint immunostaining concentration", "setting": "[19]", "result": 0.5, "unit": "ng/mL"}, {"measurement": "Endpoint immunostaining concentration", "setting": "[20]", "result": 500, "unit": "ng/mL"}, {"measurement": "Endpoint immunostaining concentration", "setting": "[21]", "result": 5, "unit": "ng/mL"}, {"measurement": "minimum neutralizing concentration", "setting": "[22]", "result": 19.5, "unit": "ng/mL"}, {"measurement": "minimum neutralizing concentration", "setting": "[23]", "result": 4.9, "unit": "ng/mL"}, {"measurement": "minimum neutralizing concentration", "setting": "[24]", "result": 1.2, "unit": "ng/mL"}]}
{"binder": "mAb #41 (antibody, V domains shown, also called mAb ID: 41; Mab No. 41) VH: EVQLVESGGGPVQPGGSLKLSCAASGFTFSNYEMYWVRQAPGKGLEWVSYISTSPAITYYADSVRGRFTISRDNAKSSLYLHMNSLRAEDTAVYYCATISHQQFSSGWNAWFDPWGQGTLVTVSS VL: NFMLTQPHSVSESPGKTVTISCTGSSGSIASNYVQWYRQRPGSAPTTVIYENYQRPSGVPARFSGSIDRSSNSASLTISGLQTDDEADYYCQSYDNNNLWVFGGGTKLTVL", "values": [{"measurement": "Endpoint immunostaining concentration", "setting": "[1]", "result": 0.5, "unit": "ng/mL"}, {"measurement": "minimum neutralizing concentration", "setting": "[2]", "result": 0.6, "unit": "ng/mL"}]}
